Test: soluble on expression in E. coli; label from the status in PepcDB or PDB records

Row | Sequence | soluble on expression in E. coli
1 | GFQSNAMKQETPITLHVKSVIEDDGNQEVIEFRTTGFYYVKQNKVYLSYYEEHDLGKVKTIVKVSEGEVLVMRSGAVKMNQRFVTGASTIAKYKMSFGELELKTSTKSIQSDLDEEKGRISIAYDMHVGDEQEHLHNMTITYEGGTHA | soluble
2 | MSLGDSRGRVFSWSVSDQPGRSAADHWVKDEGGDSCSGCSVRFSLTERRHHCRNCGQLFCQKCSRFQSEIKRLKISSPVRVCQNCYYSLQHERGAEDGPRNCEGHHHHHH | soluble
3 | MAHHHHHHMSTRRLMHTMIRVGDLDRSIKFYTEALGMRLLRKWDCPEDKFTLVFLGYGTESETAVLELTYNYGQSEYKHGDAYGHIAIGVEDVNEEIARLKKMNVPIDYESEDGFMAFIVDPDGYYIELLNTERMLEKSREQMNEQGTA | soluble
4 | MLYFVLCDLKFNQFSRYPMSYQKIELSISLSLDSPKLDESDFILLSVKYLEKSLGKKKEFSGFFEDIEKLYFKQNYKEAIEKILDFCKKNESLLSEQVVQRLAEVAPRLKSNPKDNESRRLYETLYADHLESVIKQESDLSVFNELRDSYNAVKPEYAVTHETEIKTLDEAKQFILSFVMLNDNVELPLKAQSERYPKKDRSREELGNTPSANPGIMKPNSPNFTDNLVPVRDVPKIAINEKVAGGYSKTKPTTPFVASLSGTTYSLMVVLTDYIEKHKTDKDIEKKVNQIINLWISSYIKEGYHSYSEVVDVLTEPFLQSIFDKANIKLNYGVLDDTHAEFRKAQDYVFGLTIQSAMHHELQERFKNKEKLQEEVKNFESGLNKLNQNVENTGRHREALNKLNEVFQDWSAGKKSYDAFKSESNQLIHDIESEEQKSNRGLGSMLKNLGNYLLYLITLRFLKEDYPKPSSPVTMLVTELRGTLEQIDHFHKTSLSLKKATQPDPKNTSSSDETADVRKSAVDTDKPSKNQDSEVKKTLDSEQLEEVQRQDDKSARLQ | not soluble
5 | MNPAPERTVMQHVRPLPYEADFTGFLSNTVAPRWMEALRIQRMRTCFPHFDSGAPQHLCIITETTVRYRKPVRYSDAIVGKAWLQSARYSRWIIAFSFAFEFSGLPAFEGRQAGTFIDPLEHHHHHH | not soluble
6 | MRVFKTILLVVLMTLSQAMVAQTSPIPMLERAANQIISILKENKARLKSNPEIIYKAVEENLLPNVDVAGMSRSVLGRQAWSKATEAERVEFSKAFTRLVIRTYSSPLAQYSDETVQFLPLRGSLNSRFIRVNSVIVRSAGQNIPLSYSLVSKNGKWKIYDISVEGVSLLQSFRSQFAQALQHSSISQVIKEMQQKQIKKASLEHHHHHH | not soluble
7 | MGSDKIHHHHHHMPLVLIRKSDYSYETLKPLIFGMLDRLGGHRMAPGSRVLIKPNLLTPATPRQAILTHPFIVRAAVEYALNQNARPLVADSPAMGSFSKILRDSGIQEALAPLKVDYRPFQDSLKIDIGEPFGSIDIAREVIEADFIINLPKFKTHSQMLLTLGVKNLFGCIVGYRKPEWHMKTGVNRPLFARLLVQLYHRISPAFTILDGILALEGEGPGKRGTPKGGWPAPRQRQRPGPRQDRLPDT | not soluble
8 | MSLTKMRESEIIRMFIEEFDNHALGDDAGFVRFNDSWLLVTSDMLVWRTDVPDFMTPEEAGKKVVTMNVSDIAAMGGLPLAFFFSLGVPENTDEKTLRGIAKGINKGAKEYGVKIVSGDTNEAREIIIDGGAIGRGSRLLLRSNAKPGDLVCVTGELGRPLTALLLWLKGEEIPPKILEKAKNPKAREREGIELSNYANSAIDISDGLSKELWEIARSSNVRIVIDEDKIPVNEEVREIVKDPIKIALASGEEFELVFTIPKENLGNISFDFTIIGRVEEGEGVYIKREDKMERLPILGWEHLKGGDYVNLEGHHHHHH | soluble
9 | MGSDKIHHHHHHVKIALDPTPFHHSHTLLEFPRVVADLGYKYMQMTPHADFIPFYNHPKADDELVGQLNKACKDVGIEIASVLPVLRWSGPDEDAREAAVRYWKRVIQITVDLGVSTINTEFSGRPEKAEESERAFYRSMEELLPIIEREGLDLLIDPHPDDFVEEGLAAIRVIRGLNSKNVGLVYVASHSFHMKNAPLDIMRAAGDKLRLVHVADTMNHHASHGLRYITNPPGNPVRVHQHLKIGDGDVNWEEFFGGLQEIGFLDREDTVMVSSVFAEDENAAEVSRYQLVTMNNYIATAR | not soluble
10 | GSSHHHHHHSSGLVPRGSHMRGQRGEVEQMKSCLRVLSQPMPPTAGEAEQAADQQEREGALELLADLCENMDNAADFCQLSGMHLLVGRYLEAGAAGLRWRAAQLIGTCSQNVAAIQEQVLGLGALRKLLRLLDRDACDTVRVKALFAISCLVREQEAGLLQFLRLDGFSVLMRAMQQQVQKLKVKSAFLLQNLLVGHPEHKGTLCSMGMVQQLVALVRTEHSPFHEHVLGALCSLVTDFPQGVRECREPELGLEELLRHRCQLLQQHEEYQEELEFCEKLLQTCFSSPADDSMDR | soluble
11 | MSEMTKTPTHYRLLSTLKAMGPYLREGQCSERFYLFDCLASCVNDKKSPEKREFWGWWMELTQNEQEMSACYHIGRYTLAGDWVAEAIPESAQAEVNHTQAEFHKKLVKTLRERFEISVTVSTESAPFA | not soluble
12 | MSVFMDLNIINSSDKNRLKHIIETAAHLGYSTVAINYVVEPLQKKQEIPNPQSISDLFDKFPVVQGKSSPIKVLNRLTIVASDASHFRPTNEYKKFDLVAVYPKTEKLFHAACMTFDVDIICIAVTEKQPFHFKRAPVNGAIDRGIFFETCYAAAIRDSITRRYTIANAICLMEICKGKNVIVSSGAERQLELRGPYDIANLGLVFSLSEGDAKAAVSTNCRSVLLHGETRATASGVIHTMKKPQILQKEEEETPAAKKARTELA | soluble
13 | MGVCRICGLSLDEISDSIGVCLECLRKGNLDFARKAHRKWREEIGLPVERWAREEGKVCFLCVNSCVIPEGKTGFCGVLRNEGGRLSYITGSHRKAFLHWYYDPHPTNCVALPICPEREHRGFYNFAVFFAGCNLDCLFCQNIDHKYMVKDGRISEGKIVDIDELVEIAMKPRVSCVCFFGGDPTPWTVFALEFAVKLGNRRRICWETNGLAHPRIMERMARVSLESGGIVKIDWKAFSPEVYEALTGVDGKSAVRRIMENVQLVSSMGKGREIPLLVISVLVIPHYIDEKEIEGIAGFISSVDPEIPLVLLAFAPQHLMSDLPTTRKHHMERVKQKALEKGLKRVFVENVWLLS | not soluble
14 | MSERRDCIVCTSGTCGRSWVFFRSGSGRRCIRSIFRESEGRTFGSNRISGSADHWTAIVERRKSRERGSKMKKEMTNDMTVGSPTKLIIQFMIPMCLGNVFQQFYNIADS | not soluble
15 | RELHPVAPLLDNLTSALNKVYQRKGVNISLDISPEISFVGEQNDFVEVMGNVLDNACKYCLEFVEISARQTDEHLYIVVEDDGPGIPLSKREVIFDRGQRVDTLRPGQGVGLAVAREITEQYEGKIVAGESMLGGARMEVIFGRQHSAPKDE | soluble
16 | MGGAVEVSATINNVGNYNAEEVVQLYIRDIVGNVTRPIKELKGFQRITLGKGESMVVTFKLHTDELAFYNQQMEYKPEAGLFHVWIGGDSSTTLKTEFEVTDLEHHHHHH | not soluble
17 | MIIKRNDMAPSVKAGDAILFYRLSQTYKVEEAVVYEDSKTSITKVGRIIAQAGDEVDLTEQGELKINGHIQNEGLTFIKSREANYPYRIADNSYLILNDYYSQESENYLQDAIAKDAIKGTINTLIRLRNH | not soluble
18 | MGSDKIHHHHHHMPIKSRAVVIPKRNTIEIRTVQVNEPKAGDVLIKTAFTSISAGTERMLLDGRLPQPQLLFPVVPGYETVGQVVQVGSKAPKELLGQWVYIGGARCFRGVNAAWGGQSEYITAEHERVVPLGSLDPATGVLLALAATALHGIKIGQIRRSDRVLVLGQGIVGQLAARLAKYAGAQHVAVADRVAVRLQASQADQVIDVTRESLDEAIGEAKVDVLIEATGSMGALSGALPLLANHGRVVLLGYYDHINIPYAPVFMREAQILVAREWEFGPDGDLPRVRDLLANGDLKVDGLLTHHVPLDRIQAAYRLAPGRPGLFEGCCHVAAKRYRRSVVLTRQGAMRISLEREMALCPPIQKRNNQVQQHECSPSTAKAAWENHSSPPIW | not soluble
19 | MSLKITELSRDLTTGLTTATTSIADYFFGNTHHSHHVFYLNLTVLKAKRAAKVENKKFIDLKLIKLTSGNGGNGCVSFFKDNFKPMGPPDGGDGGNGGSIYLNVVDKNITSLHGLQKRYVAKGGQPGKGSQLDGKSGDDIIIDIPLGTIVRWIPDPQDFKKFVSQREGDALNDVFMEFDIDDRDFIQLNRGGYRPGEGWIFKEHDEEYFRDKDFFQDLNEKVTGYDEELLFEESYNDRFPIVGLDCNQVTQKPLLLLRGGKGGLGNMHFLTKEIKGPRFCKMGRPGITANFLLELKLIADLGLVGLPNAGKSSLLRAISKARPRVGHWEFTTLQPTVGTIFTRIDKDPFTVADIPGIIKGASQNKGMGLDFLRHIERSGGLVFVVSLESANPVDDLKILLEEVGPRRMKDKNVLVVATKADLSSEGANFKVLRDYIEHNHSEWKIVPVCAPKGENVERCIKLMSEIAQTKKKEGHHHHHH | soluble
20 | MGSDKIHHHHHHVKTNLEHWVTLQEKGYFENHPFYQERQVNDDAARVEKATPLTKDMKIAIIGCGYGRESASFCRRVRKVYGIDVSWTILAKALERMLADNHVNFTPVLASQWKTILPDGGLDLVYSVVVFQHLTRDLVDDYIGGLKGKLRPGGRFYVQFCDSDTGEADADLRFYEPNVRWTEDDIRILARRHGLDLLSLDSERVTPTASWHWALMEKADDR | not soluble
21 | GHMSSTPSNQNIIPIIKKESIVSLFEKGIRQDGRKLTDYRPLSITLDYAKKADGSALVKLGTTMVLAGTKLEIDKPYEDTPNQGNLIVNVELLPLAYETFEPGPPDENAIELARVVDRSLRDSKALDLTKLVIEPGKSVWTVWLDVYVLDYGGNVLDACTLASVAALYNTKVYKVEQHSNGISVNKNEVVGKLPLNYPVVTISVAKVDKYLVVDPDLDEESIMDAKISFSYTPDLKIVGIQKSGKGSMSLQDIDQAENTARSTAVKLLEELKKHLGI | soluble
22 | MGSQSETVCVTGASGFIGSWLVMRLLERGYTVRATVRDPTNVKKVKHLLDLPKAETHLTLWKADLADEGSFDEAIKGCTGVFHVATPMDFESKDPENEVIKPTIEGMLGIMKSCAAAKTVRRLVFTSSAGTVNIQEHQLPVYDESCWSDMEFCRAKKMTAWMYFVSKTLAEQAAWKYAKENNIDFITIIPTLVVGPFIMSSMPPSLITALSPITGNEAHYSIIRQGQFVHLDDLCNAHIYLFENPKAEGRYICSSHDCIILDLAKMLREKYPEYNIPTEFKGVDENLKSVCFSSKKLTDLGFEFKYSLEDMFTGAVDTCRAKGLLPPSHEKPVDGKT | soluble
23 | MAAESQLKRVIETLRRLGIEEVLKLERRDPQYRAVCNVVKRHGETVGSRLAMLNALISYRLTGKGEEHWEYFGKYFSQLEVIDLCRDFLKYIETSPFLKIGVEARKKRALKACDYVPNLEDLGLTLRQLSHIVGARREQKTLVFTIKILNYAYMCSRGVNRVLPFDIPIPVDYRVARLTWCAGLIDFPPEEALRRYEAVQKIWDAVARETGIPPLHLDTLLWLAGRAVLYGENLHGVPKEVIALFQWRGGCRPPSE | soluble
24 | MSLRSAYLSTESKIVLDVISVSDTHGWIYGHRHLPEYGDYGTLLSYIERTRQKALESEGRSVLAVDAGDLVEGTGLSDLTKVKGEKILEAASYIGFDLQTIGNHESYYKETTDYIHSKVEALFGDRYITTNVFMRDTNVPVGSGRYKYLVLPTGLRVLMLGFLFHTSPYDGVYTIPAREAIASQEITGVLEKYKYQTDLLVLACHIPTYDLEISEIVTELRAFYNQINYTIPIIIIAGHYHQIKNTYCMDGQDKQCYIVEGGCYLRFMQHVTYEFKPMTYSHEGNTYTGYQFSSVDYSLPYNEGHHHHHH | soluble
